Measured values reported in US20250019439A1 (Adimab, published 2025).

Key:
ADI-26920 IgG [1] = molecular target: T1, ADI-26920 IgG; assay: SPR Carterra avidity, yeast anti-ID
T1 construct: anti-CD3 IgG
In short: (§1)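 Kinetic constants come from a 1:1 binding-model fit of double-referenced, drift-corrected sensorgrams. Anti-CD3 antibodies (100 nM) were captured via immobilized anti-human Fc, and anti-idiotype binding was recorded at 25° C in HBSTE, with dissociation monitored for 300s.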

ADI-26919 = molecular target: T2, ADI-26919; assay: SPR Carterra avidity, yeast anti-ID
T2 construct: anti-CD3 antibody made in CHO cells, captured by anti-human Fc
In short: as §1

ADI-26943 = molecular target: T3, ADI-26943; assay: SPR Carterra avidity, yeast anti-ID
T3 construct: anti-CD3 antibody made in CHO cells, captured by anti-human Fc
In short: as §1

ADI-26924 = molecular target: T4, ADI-26924; assay: SPR Carterra avidity, yeast anti-ID
T4 construct: anti-CD3 antibody made in CHO cells, captured by anti-human Fc
In short: as §1

ADI-26913 IgG [2] = molecular target: T5, ADI-26913 IgG; assay: SPR Carterra avidity, yeast anti-ID
T5 construct: anti-CD3 IgG
In short: as §1

ADI-76357 = molecular target: T6, ADI-76357; assay: SPR Carterra avidity, yeast anti-ID
T6 construct: anti-CD3 antibody made in CHO cells, captured by anti-human Fc
In short: as §1

ADI-74968 = molecular target: T7, ADI-74968; assay: SPR Carterra avidity, CHO anti-ID
T7 construct: pH-dependent anti-CD3 antibody made in CHO cells
Method: (§2) Kinetic analysis was conducted at 25° C. in an HBSTE running buffer system (Carterra Cat #3630) using a Carterra LSA (Carterra USA, Salt Lake City, UT). The sample compartment was maintained at 20° C. for the duration of each experiment.
(§3) For antibody capture experiments, a goat anti-human Fc antibody (Jackson ImmunoResearch) was covalently coupled to an HC30M sensor chip surface via standard amine coupling (1:1 EDC:NHS) and then blocked with ethanolamine (1.0 M, pH 8.5). Covalent coupling steps were performed in 25 mM MES buffer (Carterra, Cat #3625) plus 0.05% Tween20. The anti-CD3 antibodies (100 nM in running buffer) were flowed over discrete regions of interest on the chip surface for 5 minutes. […] Dissociation of the anti-idiotype antibodies was monitored for 300s. Several blank buffer samples were injected over the entire chip surface at the start of each non-regenerative kinetic cycle. The preceding blank buffer injection was used for blank surface subtraction. At the end of each non-regenerative kinetic cycle, all surfaces were regenerated via two 30s injections of 10 mM glycine, pH 1.7.
(§4) In Tables 10A-10C, anti-CD3 antibodies are listed by ADI number or CTL number in the first column. […] CTL-62223 is mosunetuzumab, CTL-62227 is odronextamab, CTL-62228 is glofitamab, and CTL-62240 is ONO-4685. […] “W.B.” means weak binding under the conditions of this assay and thus a KD was unable to be assigned. “N.B.” means no binding under the conditions of this assay.

ADI-26916 IgG [3] = molecular target: T8, ADI-26916 IgG; assay: SPR Carterra avidity, CHO anti-ID
T8 construct: anti-CD3 IgG
Method: as §2, §3, §4

ADI-76359 = molecular target: T9, ADI-76359; assay: SPR Carterra avidity, CHO anti-ID
T9 construct: anti-CD3 antibody made in CHO cells, captured by anti-human Fc
Method: as §2, §3, §4

ADI-22523 Fab = molecular target: T10, ADI-22523 Fab; assay: BLI; tip anti-ID IgG, solution ADI-22523 Fab
T10 construct: anti-CD3 Fab by papain digestion of the IgG
In short: (§5)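 Anti-ID IgG was captured on AHC biosensors, equilibrated in assay buffer for 30 min, then baselined for 60 s. KD = koff/kon came from a 1:1 binding fit.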

ADI-26906 IgG [4] = molecular target: T11, ADI-26906 IgG; assay: SPR Carterra avidity, CHO anti-ID, *koff limit
T11 construct: anti-CD3 IgG
Method: as §2, §3
For data processing and fitting, sensorgrams were double reference subtracted with a baseline drift correction of 4 RU. Sensorgrams were y-aligned and baseline corrected, filtered and cropped to include only the association and dissociation steps. Data was fitted to a 1:1 binding model using Carterra Kinetics Data Analysis software version 1.7.1.3055.

ADI-22523 IgG [5] = molecular target: T12, ADI-22523 IgG; assay: BLI; tip anti-ID IgG, solution ADI-22523 IgG
T12 construct: anti-CD3 IgG
In short: as §5

ADI-26928 IgG = molecular target: T13, ADI-26928 IgG; assay: BLI; tip anti-CD3 IgG, solution ADI-34134 IgG
T13 construct: anti-CD3 IgG
Method: (§6) ForteBio affinity measurements were performed generally as previously described (Estep et al., MAbs. 2013 5(2):270-8). Briefly, ForteBio affinity measurements were performed by loading antibody IgG or Fabs on-line onto AHC sensors. Sensors were equilibrated off-line in assay buffer for 30 minutes and then monitored on-line for 60 seconds for baseline establishment. For avid binding measurement, sensors with loaded antibodies were exposed to IgG or Fab solutions for 3 minutes, afterwards they were transferred to assay buffer for 3 minutes for off-rate measurement. Kinetics data were fit using a 1:1 binding model in the data analysis software provided by ForteBio to obtain equilibrium dissociation constant (KD=koff/kₒₙ) values. In each column, tip-immobilized antibodies are listed first and solution antibodies second.
(§7) CTL-19613 is an IgG1 antibody prepared with anti-CD3 variable domains corresponding with those of clone 12C described in United States Publication Number US 2010/0183615 (e.g., see paragraphs 469-479 and FIG. 25 thereof), which also make up the CD3 binding domain of the bispecific antibody pasotuxizumab. […] In each column, tip-immobilized antibodies are listed first and solution antibodies second.

ADI-26927 IgG = molecular target: T14, ADI-26927 IgG; assay: BLI; tip anti-CD3 IgG, solution ADI-34134 IgG
T14 construct: anti-CD3 IgG
Method: as §6, §7

ADI-26941 IgG = molecular target: T15, ADI-26941 IgG; assay: BLI; tip anti-CD3 IgG, solution ADI-34134 IgG
T15 construct: anti-CD3 IgG
Method: as §6, §7

ADI-26920 IgG [6] = molecular target: T1, ADI-26920 IgG; assay: BLI; tip anti-CD3 IgG, solution ADI-34134 IgG
Method: as §6, §7

ADI-26906 IgG [7] = molecular target: T11, ADI-26906 IgG; assay: BLI; tip anti-CD3 IgG, solution ADI-34134 IgG
Method: as §6, §7

ADI-26916 IgG [8] = molecular target: T8, ADI-26916 IgG; assay: BLI; tip anti-CD3 IgG, solution ADI-34134 IgG
Method: as §6, §7

ADI-22523 IgG [9] = molecular target: T12, ADI-22523 IgG; assay: BLI; tip anti-CD3 IgG, solution ADI-34134 IgG
Method: as §6, §7

ADI-26921 IgG = molecular target: T16, ADI-26921 IgG; assay: BLI; tip anti-CD3 IgG, solution ADI-34134 IgG
T16 construct: anti-CD3 IgG
Method: as §6, §7

ADI-26913 IgG [10] = molecular target: T5, ADI-26913 IgG; assay: BLI; tip anti-CD3 IgG, solution ADI-34134 IgG
Method: as §6, §7

ADI-74965 = molecular target: T17, ADI-74965; assay: SPR Carterra avidity, CHO anti-ID; CHO-produced ADI-34134 (Table 10C)
T17 construct: pH-dependent anti-CD3 antibody made in CHO cells
Method: as §2, §3
(§8) For data processing and fitting, sensorgrams were double reference subtracted with a baseline drift correction of 4 RU. Sensorgrams were y-aligned and baseline corrected, filtered and cropped to include only the association and dissociation steps. […]

ADI-48650 = molecular target: T18, ADI-48650; assay: as above
T18 construct: pH-dependent anti-CD3 antibody made in CHO cells
Method: as §2, §3, §8

T1 sequence (VH, as listed by the source limits assumed, chain 1 of 2): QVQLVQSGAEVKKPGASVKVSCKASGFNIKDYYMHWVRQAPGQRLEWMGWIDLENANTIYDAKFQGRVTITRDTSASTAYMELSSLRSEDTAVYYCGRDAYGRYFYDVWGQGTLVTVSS
T1 sequence (VL, as listed by the source limits assumed, chain 2 of 2): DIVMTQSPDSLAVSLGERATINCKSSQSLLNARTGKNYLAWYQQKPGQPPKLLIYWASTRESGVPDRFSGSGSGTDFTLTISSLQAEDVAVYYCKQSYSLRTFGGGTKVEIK
T11 sequence (VH, as listed by the source limits assumed, chain 1 of 2): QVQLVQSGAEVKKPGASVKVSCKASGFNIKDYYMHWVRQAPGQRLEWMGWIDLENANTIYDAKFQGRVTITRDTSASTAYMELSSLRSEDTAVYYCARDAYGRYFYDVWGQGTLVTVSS
T11 sequence (VL, as listed by the source limits assumed, chain 2 of 2): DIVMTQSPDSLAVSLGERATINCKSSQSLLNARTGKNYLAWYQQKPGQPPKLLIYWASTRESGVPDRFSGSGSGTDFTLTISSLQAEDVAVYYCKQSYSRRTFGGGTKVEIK
T12 sequence (VH, as listed by the source limits assumed, chain 1 of 2): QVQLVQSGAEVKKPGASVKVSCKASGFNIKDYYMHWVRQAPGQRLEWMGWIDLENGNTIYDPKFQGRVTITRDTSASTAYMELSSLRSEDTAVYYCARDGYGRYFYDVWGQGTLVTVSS
T12 sequence (VL, as listed by the source limits assumed, chain 2 of 2): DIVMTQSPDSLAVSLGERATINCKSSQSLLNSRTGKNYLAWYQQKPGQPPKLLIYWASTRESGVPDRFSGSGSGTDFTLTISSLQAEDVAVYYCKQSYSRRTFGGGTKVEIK
T5 sequence (VH, as listed by the source limits assumed, chain 1 of 2): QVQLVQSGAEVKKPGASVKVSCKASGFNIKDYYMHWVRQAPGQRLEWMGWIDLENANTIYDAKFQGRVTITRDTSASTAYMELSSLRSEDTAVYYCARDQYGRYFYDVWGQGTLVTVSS
T8 sequence (VH, as listed by the source, chain 1 of 2): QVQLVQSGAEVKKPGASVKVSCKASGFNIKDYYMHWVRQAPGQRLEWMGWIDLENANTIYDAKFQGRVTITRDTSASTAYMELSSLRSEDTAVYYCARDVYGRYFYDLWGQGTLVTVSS
T3 sequence (VH, as listed by the source, chain 1 of 2): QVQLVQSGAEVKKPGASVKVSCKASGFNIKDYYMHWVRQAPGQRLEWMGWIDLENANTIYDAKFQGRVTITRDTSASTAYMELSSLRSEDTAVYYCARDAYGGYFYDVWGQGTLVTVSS
T3 sequence (VL, as listed by the source, chain 2 of 2): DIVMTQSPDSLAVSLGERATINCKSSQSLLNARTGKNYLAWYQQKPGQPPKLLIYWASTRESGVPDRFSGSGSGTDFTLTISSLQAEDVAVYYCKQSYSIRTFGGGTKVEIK
T4 sequence (VH, as listed by the source, chain 1 of 2): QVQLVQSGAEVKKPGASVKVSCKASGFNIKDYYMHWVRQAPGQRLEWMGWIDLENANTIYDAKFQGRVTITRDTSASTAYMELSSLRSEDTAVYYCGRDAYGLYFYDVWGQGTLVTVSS
T9 sequence (VH, as listed by the source, chain 1 of 2): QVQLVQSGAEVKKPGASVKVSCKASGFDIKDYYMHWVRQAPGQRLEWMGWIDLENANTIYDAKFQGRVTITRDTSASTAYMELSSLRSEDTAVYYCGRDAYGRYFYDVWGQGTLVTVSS
T6 sequence (VH, as listed by the source, chain 1 of 2): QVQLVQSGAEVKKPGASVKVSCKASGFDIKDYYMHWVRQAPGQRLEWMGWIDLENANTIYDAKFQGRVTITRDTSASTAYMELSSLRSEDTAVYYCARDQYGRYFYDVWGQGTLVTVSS
T7 sequence (VH, as listed by the source, chain 1 of 2): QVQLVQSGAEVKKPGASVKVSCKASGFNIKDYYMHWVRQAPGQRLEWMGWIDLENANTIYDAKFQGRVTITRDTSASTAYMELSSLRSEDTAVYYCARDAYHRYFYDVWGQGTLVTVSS
T7 sequence (VL, as listed by the source, chain 2 of 2): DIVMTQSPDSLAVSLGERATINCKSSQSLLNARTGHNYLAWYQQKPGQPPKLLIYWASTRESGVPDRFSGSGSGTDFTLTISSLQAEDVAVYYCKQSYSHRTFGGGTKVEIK
T13 sequence (VH, as listed by the source limits assumed, chain 1 of 2): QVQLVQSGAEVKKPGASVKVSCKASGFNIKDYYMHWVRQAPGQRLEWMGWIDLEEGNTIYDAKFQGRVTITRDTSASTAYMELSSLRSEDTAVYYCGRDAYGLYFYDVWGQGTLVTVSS
T14 sequence (VH, as listed by the source limits assumed, chain 1 of 2): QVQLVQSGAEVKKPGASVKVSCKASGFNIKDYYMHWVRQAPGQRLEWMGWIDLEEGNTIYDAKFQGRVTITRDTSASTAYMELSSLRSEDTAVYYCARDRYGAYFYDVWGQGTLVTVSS
T16 sequence (VH, as listed by the source limits assumed, chain 1 of 2): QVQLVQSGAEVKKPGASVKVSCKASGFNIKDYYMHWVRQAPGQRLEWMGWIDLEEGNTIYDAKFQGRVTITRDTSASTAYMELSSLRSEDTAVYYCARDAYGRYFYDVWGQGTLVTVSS
T15 sequence (VH, as listed by the source limits assumed, chain 1 of 2): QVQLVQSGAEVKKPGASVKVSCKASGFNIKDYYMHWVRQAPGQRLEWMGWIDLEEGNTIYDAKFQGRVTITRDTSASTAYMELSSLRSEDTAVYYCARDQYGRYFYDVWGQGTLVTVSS
T18 sequence (VH, as listed by the source, chain 1 of 2): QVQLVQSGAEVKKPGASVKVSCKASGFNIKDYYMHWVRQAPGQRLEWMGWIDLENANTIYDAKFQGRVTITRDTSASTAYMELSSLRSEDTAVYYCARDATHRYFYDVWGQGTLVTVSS
T18 sequence (VL, as listed by the source, chain 2 of 2): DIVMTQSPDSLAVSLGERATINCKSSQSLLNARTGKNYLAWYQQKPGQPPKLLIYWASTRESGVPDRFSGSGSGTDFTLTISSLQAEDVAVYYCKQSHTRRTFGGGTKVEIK
T17 sequence (VL, as listed by the source, chain 2 of 2): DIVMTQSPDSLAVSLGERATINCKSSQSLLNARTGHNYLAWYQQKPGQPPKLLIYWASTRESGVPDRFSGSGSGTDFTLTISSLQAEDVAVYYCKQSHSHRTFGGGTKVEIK

B1: ADI-34145 IgG (antibody, V domains shown)
VH: EVQLLESGGGLVQPGGSLRLSCAASGFTFSSYAMSWVRQAPGKGLEWVSTISGSGGSTYYADSVKGRFTISRDNSKNTLYLQMNSLRAEDTAVYYCARLGGRRGSGSSYYYYYGMDVWGQGTTVTVSS
VL: not shown
notes: anti-ID IgG
Kd (ADI-26920 IgG [1]): 8.6 nM | Kd (ADI-26919): 18 nM | Kd (ADI-26943): 9.5 nM | Kd (ADI-26924): 17 nM | Kd (ADI-26913 IgG [2]): 18 nM | Kd (ADI-76357): 23 nM | Kd (ADI-74968): 41 nM | Kd (ADI-26916 IgG [3]): 17 nM | Kd (ADI-76359): 8 nM | Kd (ADI-22523 Fab): 4.13 nM | Kd (ADI-26906 IgG [4]): 6.4 nM | Kd (ADI-22523 IgG [5]): 2.72 nM

B2: ADI-34134 IgG (antibody, V domains shown)
VH: QVQLVQSGAEVKKPGSSVKVSCKASGGTFSSYAISWVRQAPGQGLEWMGGIIPIFGTANYAQKFQGRVTITADESTSTAYMELSSLRSEDTAVYYCARGAPNYYGSGGYDDGWFDPWGQGTLVTVSS
VL: EIVLTQSPGTLSLSPGERATLSCRASQSVSSDYLAWYQQKPGQAPRLLIYGASSRATGIPDRFSGSGSGTDFTLTISRLEPEDFAVYYCQQFGRVPTFGGGTKVEIK
Kd (ADI-26920 IgG [1]): 16 nM | Kd (ADI-26919): 9.1 nM | Kd (ADI-26943): 13 nM | Kd (ADI-26924): 20 nM | Kd (ADI-26913 IgG [2]): 21 nM | Kd (ADI-76357): 9.5 nM | Kd (ADI-26928 IgG): 0.85 nM | Kd (ADI-26927 IgG): 0.45 nM | Kd (ADI-26941 IgG): 1.13 nM | Kd (ADI-26920 IgG [6]): 0.46 nM | Kd (ADI-26906 IgG [7]): 0.43 nM | Kd (ADI-26916 IgG [8]): 1.04 nM | Kd (ADI-22523 IgG [9]): 0.37 nM | Kd (ADI-26921 IgG): 0.57 nM | Kd (ADI-26913 IgG [10]): 0.77 nM | Kd (ADI-74968): 0.78 nM | Kd (ADI-26916 IgG [3]): 0.17 nM | Kd (ADI-76359): 0.15 nM | Kd (ADI-22523 Fab): 5.62 nM | Kd (ADI-26906 IgG [4]): 0.18 nM | binding result (ADI-74965): binds | binding result (ADI-48650): binds | Kd (ADI-22523 IgG [5]): 0.46 nM
